Common to all, as to format: cell-based, human
The subject of data set [1] is ARPE-19 cells. Put plainly: Anti-VEGF drug-induced fibrotic deformation of ARPE-19 cells, simultaneous treatment with CCN5 protein. The settings on record: for expression of CCN2 on treatment with anti-VEGF drug / expression of CCN5 on treatment with anti-VEGF drug: bevacizumab 0.25 mg/ml, ranibizumab 0.125 mg/ml, aflibercept 0.5 mg/ml.
Data set [2] deals with ARPE-19 cells. Kind of data set: Bevacizumab-induced fibrotic deformation of ARPE-19 cells and prevention by AdCCN5. The settings on record: bevacizumab 0.25 mg/ml. Here is the method: Recombinant TGF-β2 was purchased from PeproTech Korea (Korea). ARPE-19 cells were treated with the recombinant TGF-β2 at 10 ng/ml. Recombinant EGF and FGF-2 were purchased from Invitrogen (USA). ARPE-19 cells were treated with 1 mM of EGTA, 10 ng/ml of EGF, and 20 ng/ml of FGF-2.
Use of an anti-VEGF drug that inhibits neovascularization is a widely used method for treating wet age-related macular degeneration. However, this method has a side effect of causing morphological and functional changes in RPE cells. […] The specific experimental process is shown in Example 2, and this experimental process is schematically illustrated in FIG. 11a. The experimental results are illustrated in FIGS. 11b to 11d.

Data set [3] concerns ARPE-19 cells. Put plainly: Restoration of already formed TGF-β-induced fibrotic deformation of ARPE-19 cells. The settings on record: then agent (restoration); for expression of mesenchymal (α-SMA, vimentin, fibronectin) and epithelial (ZO-1, occludin) marker proteins (Western blotting): TGF-β 2 days, FIGS. 6c, 8b, 12b, 13b. The procedure: The cultured cells were divided into the following two groups and subjected to drug treatment: one group in which induction of differentiation of retinal pigment epithelial cells into mesenchymal cells was suppressed; and the other group in which retinal pigment epithelial cells that had been induced to differentiate into mesenchymal cells were caused to return to normal retinal pigment epithelial cells. The ARPE-19 cells were grown in serum-free medium for 24 hours. Then, the cells were treated with AdCCN5 at 50 multiplicity of infection (MOI) followed by 10 ng/ml of TGF-β2 (PeproTech Korea, Korea), or treated with TGF-β2 followed by AdCCN5.
For in vitro experiments, the cultured ARPE-19 cells were washed with phosphate buffered saline (PBS), and suspended with a mixed solution of cold RIPA buffer (1% NP-40, 50 mM Tris-HCl [pH 7.4], 150 mM NaCl, and 10 mM NaF) and a protease inhibitor cocktail (Roche, Germany). The cell suspension was subjected to treatment with an ultrasonic generator for 5 minutes at an amplitude of 5% with a cycle of 2 seconds on/1 second off.
Cells that had been grown by being seeded in a 12-well culture plate, each well containing a coverslip, were fixed with 4% formaldehyde and treated with 0.2% Triton X-100 for 10 minutes. The cells were blocked with a diluted solution of 5% bovine serum albumin in PBS, and incubated with anti-ZO-1 and anti-α-SMA antibodies overnight at 4° C. For secondary antibodies, the cells were incubated for 1 hour at room temperature with FITC- or Alexa Fluor 594-conjugated secondary antibodies, TEXAS RED®-conjugated phalloidin (Invitrogen, USA) for f-actin staining, and Hoechst 33342 (Invitrogen, USA) for nuclear staining. The results were observed using an epifluorescence microscope (Zeiss, Germany). For retinal flat-mount experiments, the eyes were enucleated from the mice, and each eye was fixed in 4% formaldehyde for 24 hours. […] Observation was performed under a fluorescence microscope. […]
(In general: Immunoblotting shows a protein as a band on a membrane.)

The test system of data set [4] is ARPE-19 cells. Put plainly: Prevention of TGF-β-induced fibrotic deformation of ARPE-19 cells (microscopy, Western blotting, qPCR, immunofluorescence). The following applies: FIG. 3. Here is the method: A retinal pigment epithelial cell line (ARPE-19; ATCC, USA) was cultured in a 5% CO2 incubator at 37° C. using Dulbecco's modified Eagle's medium and Ham's F12 Nutrient Mixture medium (DMEM/F12; Welgene, Korea), containing 1% antibiotics (Gibco, USA) and 10% fetal bovine serum (FBS; HyClone, USA). The medium was replaced with fresh medium every other day. When the cells were cultured to a certain extent in a culture plate, these cells were subcultured using 0.25% trypsin/0.02% EDTA (Gibco, USA). […]
Cells that had been grown by being seeded in a 12-well culture plate, each well containing a coverslip, were fixed with 4% formaldehyde and treated with 0.2% Triton X-100 for 10 minutes. […] Observation was performed under a fluorescence microscope.
RNA was extracted using TRIZOL™ (Invitrogen, USA) reagent. cDNA was synthesized using a reverse transcription kit (Promega, USA), and real-time polymerase chain reaction was performed using SYBR® green (TAKARA, Japan). The level of RNA was analyzed by analyzing the amplification reaction curve, and this analysis was performed in triplicate or quadruplicate. The relative expression level of genes was quantified by normalization to 18s rRNA. […]

Data set [5] relates to ARPE-19 cells. Put plainly: Induction of fibrotic deformation of ARPE-19 cells by TGF-β. Here is the method:
The mature ARPE-19 cells form a cobblestone-like monolayer and express marker proteins specific for epithelial cells. The cultured ARPE-19 cells were treated with TGF-β at 5 ng/ml or 10 ng/ml for 2 days (FIG. 1a). The results are illustrated in FIGS. 1b to 1d.

Where [6] appears, read: TGF-β 5 or 10 ng/ml, 2 days, FIG. 1c.

Consider “ranibizumab: anti-VEGF monoclonal antibody fragment (Fab) sold under the brand name LUCENTIS”, for which, in the data set with ARPE-19 cells [1] (FIG. 14b), the “expression of CCN2 on treatment with anti-VEGF drug” value is “increased expression of CCN2” and the “expression of CCN5 on treatment with anti-VEGF drug” value is recorded as “decreased expression of CCN5”.
With “bevacizumab: anti-VEGF monoclonal antibody drug sold under the brand name Avastin”, the “morphology of ARPE-19 cells on treatment with bevacizumab” value in the data set on ARPE-19 cells [2] (FIG. 11b) is listed as “the morphology of the cells changed”. The “expression of CCN5 on treatment with bevacizumab (Western blotting)” value in the data set on ARPE-19 cells [2] (FIG. 11c) was “the expression of CCN5 is decreased by bevacizumab”. In addition, the “expression of CCN5 on treatment with anti-VEGF drug” value with ARPE-19 cells [1] (FIG. 14b) is recorded as “decreased expression of CCN5”.
With `Cc1cccc(-c2nn(C(=S)Nc3ccccc3)cc2-c2ccnc3ccccc23)n1` [A83-01, reference compound], the “expression of mesenchymal (α-SMA, vimentin, fibronectin) and epithelial (ZO-1, occludin) marker proteins (Western blotting)” value in the data set with ARPE-19 cells [3] is “failed to normalize abnormal changes in expression of mesenchymal marker proteins (α-SMA, vimentin, and fibronectin) and epithelial marker proteins (ZO-1 and occludin)”. Also, the “TGF-β-induced fibrotic deformation (Western blotting), CCN5 compared with A83-01” value with ARPE-19 cells [4] was “inhibited TGF-β-induced fibrotic deformation of ARPE-19 cells”.
Consider “aflibercept: anti-VEGF drug sold under the brand name EYLEA”, for which, in the data set on ARPE-19 cells [1] (FIG. 14b), the “expression of CCN2 on treatment with anti-VEGF drug” value is reported as “increased expression of CCN2” and the “expression of CCN5 on treatment with anti-VEGF drug” value is reported as “decreased expression of CCN5”.

B1: CCN5 protein: purified human-derived CCN5 protein, extracellular matrix-related protein of the CCN family, also called WISP-2 (protein)
chain: QLCPTPCTCPWPPPRCPLGVPLVLDGCGCCRVCARRLGEPCDQLHVCDASQGLVCQPGAGPGGRGALCLLAEDDSSCEVNGRLYREGETFQPHCSIRCRCEDGGFTCVPLCSEDVRLPSWDCPHPRRVEVLGKCCPEWVCGQGGGLGTQPLPAQGPQFSGLVSSLPPGVPCPEWSTAWGPCSTTCGLGMATRVSNQNRFCRLETQRRLCLSRPCPPSRGRSPQNSAF
modifications: CCN5(except signal peptide, human)
Consider B1, for which the “expression of mesenchymal and epithelial marker proteins (Western blotting)” value in the data set on ARPE-19 cells [1] (simultaneous treatment with anti-VEGF drugs) is “inhibited increased expression of mesenchymal marker proteins (α-SMA, vimentin, and fibronectin) and decreased expression of epithelial marker proteins (ZO-1 and occludin)”. Besides, the “anti-VEGF drug-induced decrease of CCN5 and increase of CCN2 expression, effect of CCN5 protein” value in the data set with ARPE-19 cells [1] (simultaneous treatment with anti-VEGF drugs, FIG. 14b) was “this phenomenon was inhibited by CCN5 protein”. Besides, the “tight junction, expression of α-SMA and formation of f-actin (immunofluorescence staining)” value in the data set with ARPE-19 cells [1] (simultaneous treatment with anti-VEGF drugs, FIG. 14c) was “inhibited disruption of tight junction, increased expression of α-SMA, and formation of f-actin”. Further, the “expression of mesenchymal (α-SMA, vimentin, fibronectin) and epithelial (ZO-1, occludin) marker proteins (Western blotting)” value with ARPE-19 cells [3] was “inhibited increased expression of mesenchymal marker proteins (α-SMA, vimentin, and fibronectin) and restored decreased expression of epithelial marker proteins (ZO-1 and occludin) to a normal level”. Moreover, the “tight junction (immunofluorescence staining)” value in the data set on ARPE-19 cells [3] (TGF-β, FIGS. 6d, 12c, 13c) is reported as “restore the tight junction, disrupted by TGF-β, to normal”. In the data set with ARPE-19 cells [4], the “TGF-β-induced fibrotic deformation (Western blotting), CCN5 compared with A83-01” value was “inhibited TGF-β-induced fibrotic deformation of ARPE-19 cells to the same level as A83-01”.

B2: TGF-β: Recombinant TGF-β2 (PeproTech), trigger for fibrotic deformation of RPE cells (protein, UniProt P61812 303-414, looked up)
Transforming growth factor …: ALDAAYCFRNVQDNCCLRPLYIDFKRDLGWKWIHEPKGYNANFCAGACPYLWSSDTQHSRVLSLYNTINPEASASPCCVSQDLEPLTILYYIGKTPKIEQLSNMIVKSCKCS
Turning to B2, the “α-SMA, f-actin and tight junction after treatment with TGF-β (immunofluorescence staining)” value with ARPE-19 cells [5] (FIG. 1d) was “the expression of α-SMA and f-actin is increased and the formation of tight junction is inhibited”. Further, the “morphology of ARPE-19 cells after treatment with TGF-β” value with ARPE-19 cells [5] (TGF-β 5 or 10 ng/ml, 2 days, FIG. 1b) is “acquired a fibroblastic morphology”. In addition, in the data set on ARPE-19 cells [5] (setting [6]), the “expression level of CCN5 protein after treatment with TGF-β” value is recorded as “significantly decreased the expression level of human-derived CCN5 protein”; the “expression of mesenchymal and epithelial marker proteins after treatment with TGF-β” value was “the expression of the mesenchymal marker proteins, α-SMA, vimentin, fibronectin, and type I collagen, was increased, whereas the expression of the epithelial marker proteins, ZO-1 and occludin, was significantly decreased”.

The values are drawn from patent US12377130B2, “Pharmaceutical composition comprising CCN5 as active ingredient, for preventing or treating retinal diseases” (OLIVES BIOTHERAPEUTICS INC., priority 2018, dated 2025).
